# Tests used:
# FSFG_(52×12) Mutant 1 = assay: partitioning into the condensed FG phase (confocal laser scanning microscopy); FG particles of unlabelled FG domain in assay buffer (50 mM Tris/HCl, 5 mM DTT, 150 mM NaCl) mixed with fluorescent probe: 6 μM mCherry, 3 μM EGFP, 1 μM NTR or 1.5 μM NTR pre-incubated with 1 μM cargo; partition coefficient = signal in the centre of the particle / buffer; 21 °C
# FSFG_(52×12) Mutant 2 = assay: as above
substance,measurement,setting,value
"NTF2 (Nuclear transport factor 2), coupled with Alexa488 (from UniProt P61970 1-127) (natural protein)",partition coefficient,FSFG_(52×12) Mutant 1,2000
same,partition coefficient,FSFG_(52×12) Mutant 2,2000
